Data: the supplement of paper PMC9233669
This sample holds only a part of the variants without activity.

Key:
biotinyl-Phe-oxazolone = test: self-aminoacylation, catalytic enhancement (BFO) (fold over background); higher = more active; k-Seq, kA / k0A0; sequences stand for … in GGGAAUGGAUCCACAUCUACGAAUUC…UUCACUGCAGACUUGACGAAGCUG
In short: (§1)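 Working in 50 μL HEPES/NaCl/KCl/MgCl2/CaCl2 buffer with 5% acetonitrile at pH 6.9–7.0, mutagenized RNA pools (0.43 μM; 21-nt variable region) were reacted with 2–1250 μM of each biotinyl-aminoacyl-oxazolone for 90 minutes at room temperature. Streptavidin capture followed, with quantification by triplicate qPCR and Illumina sequencing. Catalytic enhancement is reported as median kA over the uncatalyzed rate, the low-activity peak of a bimodal Gaussian fit to the data.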

biotinyl-Trp-oxazolone = test: self-aminoacylation, catalytic enhancement (BWO) (fold over background); higher = more active; k-Seq, kA / k0A0; sequences stand for … in GGGAAUGGAUCCACAUCUACGAAUUC…UUCACUGCAGACUUGACGAAGCUG
In short: as §1

biotinyl-Val-oxazolone = test: self-aminoacylation, catalytic enhancement (BVO) (fold over background); higher = more active; k-Seq, kA / k0A0; sequences stand for … in GGGAAUGGAUCCACAUCUACGAAUUC…UUCACUGCAGACUUGACGAAGCUG
In short: as §1

biotinyl-Ile-oxazolone = test: self-aminoacylation, catalytic enhancement (BIO) (fold over background); higher = more active; k-Seq, kA / k0A0; sequences stand for … in GGGAAUGGAUCCACAUCUACGAAUUC…UUCACUGCAGACUUGACGAAGCUG
In short: as §1

biotinyl-Leu-oxazolone = test: self-aminoacylation, catalytic enhancement (BLO) (fold over background); higher = more active; k-Seq, kA / k0A0; sequences stand for … in GGGAAUGGAUCCACAUCUACGAAUUC…UUCACUGCAGACUUGACGAAGCUG
In short: as §1

biotinyl-Met-oxazolone = test: self-aminoacylation, catalytic enhancement (BMO) (fold over background); higher = more active; k-Seq, kA / k0A0; sequences stand for … in GGGAAUGGAUCCACAUCUACGAAUUC…UUCACUGCAGACUUGACGAAGCUG
In short: as §1

Row | Sequence | self-aminoacylation (biotinyl-Phe-oxazolone) | self-aminoacylation (biotinyl-Trp-oxazolone) | self-aminoacylation (biotinyl-Val-oxazolone) | self-aminoacylation (biotinyl-Ile-oxazolone) | self-aminoacylation (biotinyl-Leu-oxazolone) | self-aminoacylation (biotinyl-Met-oxazolone)
1 | AAGUUUGCUAAUCGUCGUAAG [Fam3.1 aminoacylation ribozyme variant] | 6.16 | 2.06 | 0.947 | 0.808 | 0.75 | 0.85
2 | AAGUUUGCUAAUGGUAGCAAG [Fam3.1 aminoacylation ribozyme variant] | 1.12 | 0.649 | 0.994 | 1.02 | 0.692 | 0.976
3 | AAGUUUGCUAAUGGUCCCAAG [Fam3.1 aminoacylation ribozyme variant] | 1.11 | 1.21 | 1 | 0.977 | 0.908 | 0.976
4 | AAGUUUGCUAAUUGUCGCCAG [Fam3.1 aminoacylation ribozyme variant] | 5.34 | 1.73 | 1.39 | 1.49 | 1.49 | 1.53
5 | AAGUUUGCUAAUUGUCGCGAG [Fam3.1 aminoacylation ribozyme variant] | 17.4 | 2.7 | 1.68 | 2.04 | 2.02 | 1.75
6 | AAGUUUGCUAAUUGUGGCAAG [Fam3.1 aminoacylation ribozyme variant] | 0.701 | 0.773 | 0.817 | 0.735 | 0.988 | 0.688
7 | AAGUUUGCUACUAGUCGCAUG [Fam3.1 aminoacylation ribozyme variant] | 1.11 | 0.836 | 1.09 | 0.915 | 0.707 | 0.717
8 | AAGUUUGCUAGUAGUCACAAG [Fam3.1 aminoacylation ribozyme variant] | 1.37 | 0.986 | 1.08 | 1.05 | 0.962 | 1.43
9 | AAGUUUGCUAGUAGUCGCAGG [Fam3.1 aminoacylation ribozyme variant] | 2.48 | 1.05 | 0.799 | 0.89 | 0.956 | 1.02
10 | AAGUUUGCUAGUUGUCGCAAG [Fam3.1 aminoacylation ribozyme variant] | 3.68 | 1.18 | 1.08 | 1.07 | 1.16 | 0.898
11 | AAGUUUGCUAUGAGUCGCAAG [Fam3.1 aminoacylation ribozyme variant] | 0.664 | 0.54 | 0.974 | 0.692 | 0.778 | 0.644
12 | AAGUUUGCUAUUAGUCGCAAA [Fam3.1 aminoacylation ribozyme variant] | 1.58 | 1.74 | 1.35 | 1.52 | 1.47 | 1.84
13 | AAGUUUGCUAUUGGUCGCAAG [Fam3.1 aminoacylation ribozyme variant] | 1.46 | 0.66 | 0.76 | 0.787 | 1.05 | 0.756
14 | AAGUUUGCUCAAAGUCGCAAG [Fam3.1 aminoacylation ribozyme variant] | 2.29 | 1.13 | 0.877 | 1.24 | 0.974 | 1.37
15 | AAGUUUGCUCAUAGUCCCAAG [Fam3.1 aminoacylation ribozyme variant] | 1.29 | 0.793 | 1.06 | 0.902 | 0.902 | 0.856
16 | AAGUUUGCUCAUAGUCGCAUG [Fam3.1 aminoacylation ribozyme variant] | 0.909 | 0.856 | 1.04 | 1.05 | 0.903 | 0.893
17 | AAGUUUGCUCAUAGUCUCAAG [Fam3.1 aminoacylation ribozyme variant] | 1.98 | 0.98 | 0.901 | 0.872 | 0.977 | 0.869
18 | AAGUUUGCUCUUAGUCGCAAG [Fam3.1 aminoacylation ribozyme variant] | 1.53 | 0.65 | 0.813 | 0.73 | 0.786 | 0.758
19 | AAGUUUGCUGAUACUCGCAAG [Fam3.1 aminoacylation ribozyme variant] | 0.915 | 1.07 | 0.897 | 1.11 | 0.885 | 0.744
20 | AAGUUUGCUGAUAGGCGCAAG [Fam3.1 aminoacylation ribozyme variant] | 2.19 | 0.544 | 0.765 | 0.732 | 0.707 | 1.26
21 | AAGUUUGCUGAUAGUCGGAAG [Fam3.1 aminoacylation ribozyme variant] | 0.837 | 0.832 | 0.838 | 0.72 | 0.849 | 0.933
22 | AAGUUUGCUGAUAGUCUCAAG [Fam3.1 aminoacylation ribozyme variant] | 1.94 | 1.28 | 1.13 | 1.11 | 0.963 | 1.01
